pKd: −log10 of the molar value.
Assays:
Experiment in all cases: IEDB peptide-MHC binding, purified MHC/competitive/radioactivity; filed as Kd, often an IC50 or EC50 that approximates it; ≥ and ≤ were set here for values at or beyond the usual limits of such assays
Details in all cases: source organism: Plasmodium falciparum 3D7
HLA-A*03:01 = target: HLA-A*03:01
HLA-A*11:01 = target: HLA-A*11:01
HLA-A*31:01 = target: HLA-A*31:01
HLA-A*33:01 = target: HLA-A*33:01
HLA-A*68:01 = target: HLA-A*68:01
HLA-A*23:01 = target: HLA-A*23:01
HLA-A*24:02 = target: HLA-A*24:02
HLA-A*29:02 = target: HLA-A*29:02
HLA-A*30:02 = target: HLA-A*30:02
HLA-A*01:01 = target: HLA-A*01:01
HLA-A*26:01 = target: HLA-A*26:01

Sequence | pKd (HLA-A*03:01) | pKd (HLA-A*11:01) | pKd (HLA-A*31:01) | pKd (HLA-A*33:01) | pKd (HLA-A*68:01) | pKd (HLA-A*23:01) | pKd (HLA-A*24:02) | pKd (HLA-A*29:02) | pKd (HLA-A*30:02) | pKd (HLA-A*01:01) | pKd (HLA-A*26:01)
GTMYILLKK | 8.66 | 8.92 | 7.54 | 5.07 | 8.51 | – | – | – | – | – | –
ALERLLSLKK | 6.83 | 6.09 | ≤ 5.00 | ≤ 5.00 | ≤ 5.00 | – | – | – | – | – | –
SSPLFNNFYK | 7.00 | 9.13 | 5.79 | 5.76 | 8.20 | – | – | – | – | – | –
SYKSSKRDKF | – | – | – | – | – | 6.10 | 6.59 | ≤ 5.00 | 7.06 | – | –
KILIKIPVTK | – | 7.22 | 5.78 | ≤ 5.00 | ≤ 5.00 | – | – | – | – | – | –
YQNFQNADK | 5.57 | 6.75 | ≤ 5.00 | ≤ 5.00 | ≤ 5.00 | – | – | – | – | – | –
ELFDKDTFFK | 6.84 | – | 5.43 | 7.89 | 8.44 | – | – | – | – | – | –
SQDLACIFDA | ≤ 5.00 | ≤ 5.00 | ≤ 5.00 | ≤ 5.00 | ≤ 5.00 | – | – | – | – | – | –
ALERLLSLK | 6.63 | 6.43 | 5.46 | ≤ 5.00 | ≤ 5.00 | – | – | – | – | – | –
RMTSLKNEL | – | – | – | – | – | – | ≤ 5.00 | ≤ 5.00 | 7.85 | – | –
FSYDLRLNK | 7.54 | 8.31 | 6.34 | 5.90 | 7.82 | – | – | – | – | – | –
LQMMNVNLQK | 7.60 | 8.14 | 6.36 | 5.95 | 6.49 | – | – | – | – | – | –
SSPLFNNFY | – | – | – | – | – | – | – | – | 7.39 | 6.93 | 7.77
NFINFIKVL | – | – | – | – | – | 5.98 | ≤ 5.00 | ≤ 5.00 | ≤ 5.00 | – | –
LTNHLINTPK | 7.96 | 8.23 | 7.21 | 6.43 | 8.00 | – | – | – | – | – | –
TFLESSFDIK | ≤ 5.00 | 5.60 | ≤ 5.00 | ≤ 5.00 | ≤ 5.00 | – | – | – | – | – | –
LIENELMNY | – | – | – | – | – | – | – | 5.40 | 6.79 | 6.39 | 6.64
SSFFMNRFY | – | – | – | – | – | – | – | 7.44 | 8.12 | 6.62 | 6.78

Sequence | pKd (HLA-A*03:01) | pKd (HLA-A*11:01) | pKd (HLA-A*31:01) | pKd (HLA-A*33:01) | pKd (HLA-A*68:01) | pKd (HLA-A*23:01) | pKd (HLA-A*24:02) | pKd (HLA-A*29:02) | pKd (HLA-A*30:02) | pKd (HLA-A*01:01) | pKd (HLA-A*26:01)
HLNIPIGFK | 8.64 | 8.89 | 6.74 | – | 8.55 | – | – | – | – | – | –
FISFYLINK | 7.72 | 8.05 | 5.66 | 5.84 | 7.74 | – | – | – | – | – | –
FQAAESNERY | – | – | – | – | – | – | – | 5.75 | 6.43 | 5.05 | 5.45
TYGIIVPVL | – | – | – | – | – | 7.39 | 6.61 | ≤ 5.00 | 5.82 | – | –
VSSIFISFY | – | – | – | – | – | – | – | 5.74 | 7.26 | 6.84 | 5.79
YYNNFNNNY | – | – | – | – | – | 6.90 | – | – | 7.24 | – | –
AVSEIQNNK | 7.60 | 7.96 | 5.84 | ≤ 5.00 | 7.85 | – | – | – | – | – | –
IIALLIIPPK | 7.52 | 8.28 | ≤ 5.00 | 5.07 | 7.09 | – | – | – | – | – | –
NVDQQNDMY | – | – | – | – | – | – | – | ≤ 5.00 | ≤ 5.00 | 7.33 | ≤ 5.00
MQSSFFMNR | – | 8.96 | 7.54 | 7.12 | 8.42 | – | – | – | – | – | –
RYQDPQNYEL | – | – | – | – | – | 6.91 | – | ≤ 5.00 | 7.08 | – | –
SFFMNRFYI | – | – | – | – | – | 7.96 | 6.76 | 6.70 | 5.99 | – | –
LFDKDTFFK | 6.03 | 6.78 | 5.24 | 5.92 | 7.00 | – | – | – | – | – | –
KSMLKELIK | 6.72 | 6.82 | 6.35 | ≤ 5.00 | ≤ 5.00 | – | – | – | – | – | –
IALLIIPPK | 5.91 | 6.97 | 5.53 | 5.85 | 5.71 | – | – | – | – | – | –
YLFNQHIKK | 7.85 | 8.11 | 5.31 | 5.10 | 7.85 | – | – | – | – | – | –
KYEALIKLL | – | – | – | – | – | 6.32 | 5.54 | ≤ 5.00 | ≤ 5.00 | – | –

— the Immune Epitope Database (IEDB)
